Data taken from patent US10822379 (UNIVERSITY OF PITTSBURGH OF THE COMMONWEALTH SYSTEM OF …, dated 2020).

B1: Clone #8 (ab8) (other)
VH: EVQLVESGGGLVQPGGSLRLSCAASGFTFDDYAMSWVRQAPGKGLEWIGRMYNNGRTSYNPSLKSLVTISRDNSKNTLYLQMNSLRAEDTATYYCARDNLGYRPSENLYGMDVWGQGTTVTVSS
notes: also called #8 (VH domain)
B2: Clone #5 (ab5) (other)
VH: KVQLQQWGAGLLKPSETLSLTCAVYGGSFSGYYWSWIRQPPGKGLEWIGEINHSGSTNYNPSLKSRVTISVDTSKNQFSLKLSSVTAADTAVYYCVRLPMIKKSFDIWGPGTLVTVSS
notes: also called #5 (VH domain)
B3: Clone #4 (ab4) (scFv)
scFv: EVQLVQSGGGLVQPGGSLRLSCAASGFTFSNYAMTWVRQAPGKGLEWVSTIAGSGDNTYYADSVKGRFTISRDNDKNTLYLQMNSLRADDTAVYYCARDRYYTMDVWGQGTLVTVSSGGGGSGGSGSSGGGSQSVVTQPPSASGSPGQSVTISCTGTSSDVGGYNHVSWYQQHPGKAPKLLIYEVSERPSGVPDRFSGSKSDNKASLTIIGLQTEDEADYYCQSYDSSLSGSLFGTGTKLTVLR
notes: also called #4 (scFv)
B4: Clone #1 (ab1) (Fab, V domains shown)
VH: EVQLVESGGGLVQPGGSLRLSCAASGFTVSSNYMSWVRQAPGKGLEWVSVIYSGGSTYYADSVKGRFTISRHNSKNTLYLQMNSLRAEDTAVYYCARGYGDYYFDYWGQGTLVTVSS
VL: DVVMTQSPATLSLSPGEKATLSCRASQSVSSYLAWYQQKPGQPPKLLIYWASTRESGVPDRFSGSGSGTDFTLTISSLQAEDVAVYYCQQYGSSPLTFGGGTKVEIKR
notes: also called #1 (Fab)
B5: Clone #9 (ab9) (other)
VH: EVQLVESGGGLVQPGGSLRLSCKGSGFTLSDYYIGWVRQAPGKGLEWIGSMYHSGRTYINPSLKSRVTISRDNSKNTLYLQMNSLRAEDTAVYYCARGGITGTTPIDYWGQGTLVTVSS
notes: also called #9 (VH domain)
B6: Clone #2 (ab2) (Fab, V domains shown)
VH: QVQLQQSGPGLVKPSQTLSLTCAISGDSVSSNSAAWNWIRQSPSRGLEWLGRTYYRSKWYNDYAVSVKSRITINPDTSKNQFSLQLNSVTPEDTAVYYCAREQQQLVPHYYYYGMDVWGQGTTVTVSS
VL: DVVMTQSPSVSGSPGQSVTISCTGTTSDVGGYNYVSWYQQRPGKAPKLMIYEVSKRPSGVPDRFSGSKSGNTASLTVSGLQAEDEADYYCSSYTSSSTLFGTGTKLTVLG
notes: also called #2 (Fab)
B7: Clone #7 (ab7) (other)
VH: EVQLVESGGGLVQPGGSLRLSCAASAFDFYDYEMSWVRQAPGKALEWIGEIHHSGSTYYNPSLKGRFTISRDNSKNTLYLQMNSLRAEDTAVYYCAKDVSYHADVWGQGTTVTVSS
notes: also called #7 (VH domain)
B8: Clone #6 (ab6) (other)
VH: EVQLVESGGGVVQPGRSLRLSCAASGFTFSSYAMHWVRQAPGKGLEWIGNIYHDGSTFYNPSLKSLVTISRDDSTNTLYLQMNSLRAEDTAIYYCARVWLYGSGYMDVWGKGTLVTVSS
notes: also called #6 (VH domain)

Molecular target: RBD of the S protein of SARS-CoV-2 (SARS-CoV-2, UniProt P0DTC2 330-532)
Assay: ELISA on SARS-CoV-2 RBD

Q: Which EC50 does the source give for B1 here?
A: The EC50 was 25 nM.

Q: B2 was tested. Which EC50 did it give?
A: The EC50 was 20 nM.

Q: With B3 as the binder, how does the EC50 read?
A: Its EC50 is 10 nM.

Q: Which EC50 does the source give for B4 here?
A: Its EC50 is 20 nM.

Q: How did the EC50 turn out when B5 was run?
A: Its EC50 is 60 nM.

Q: B6 was tested. Which EC50 did it give?
A: Its EC50 is 2 nM.

Q: How did the EC50 turn out when B7 was run?
A: Its EC50 is 4 nM.

Q: For B8, which EC50 is on record?
A: The EC50 was 6 nM.
